This is an account of results in patent JP2008136455A (dated 2008).

One test concerns the target T1, ビメンチン(vimentin) (human (endogenous protein of the human …, UniProt P08670 2-466)).
T1 construct: Endogenous intracellular protein
As to the kind of experiment: streptavidin affinity precipitation from HT1080 lysate, stringent wash, western blot with anti-vimentin antibody. For orientation: In western blotting, separated proteins are transferred to a membrane and probed.

Test [1] addresses T2, hnRNP-K (heterogeneous nuclear ribonucleoprotein K) (human (endogenous protein of the human …, UniProt P61978 1-463, limits assumed)).
T2 construct: Endogenous intracellular protein
As to the kind of experiment: streptavidin affinity precipitation from HT1080 lysate, stringent wash, western blot with anti-hnRNP-K antibody.

T1 sequence (P08670 2-466 limits assumed): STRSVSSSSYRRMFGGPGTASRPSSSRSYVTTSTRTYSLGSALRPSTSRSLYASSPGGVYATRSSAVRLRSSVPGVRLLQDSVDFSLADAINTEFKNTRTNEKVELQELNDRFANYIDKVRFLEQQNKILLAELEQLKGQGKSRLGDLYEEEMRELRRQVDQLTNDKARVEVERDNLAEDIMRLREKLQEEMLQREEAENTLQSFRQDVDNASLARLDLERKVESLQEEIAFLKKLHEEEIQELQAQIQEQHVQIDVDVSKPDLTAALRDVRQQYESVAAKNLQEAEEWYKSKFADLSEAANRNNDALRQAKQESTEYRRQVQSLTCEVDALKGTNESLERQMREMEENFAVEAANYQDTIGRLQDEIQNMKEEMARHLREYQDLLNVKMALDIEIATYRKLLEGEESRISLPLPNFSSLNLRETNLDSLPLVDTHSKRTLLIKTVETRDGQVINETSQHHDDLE

B1: VHH-Sfi-SBT (VHH, not shown: large carriers)
VHH: DVQLQASGGGSVQAGGSLRLSCAASGYTIGPYCMGWFRQAPGKEREGVAAINMGGGITYYADSVKGRFTISQDNAKNTVYLLMNSLEPEDTAIYYCAADSAIYASYYECGHGLSTGGYGYGPWGQGTQVTVSS
On to B1, for which the binding result (with ビメンチン(vimentin); in test [1]) was “no binding” each time.
